Laboratory results published in PMC9122588, “Control of bacterial immune signaling by a WYL domain transcription factor”.

Molecular target: T1, Pa CapW (Pseudomonas aeruginosa PA17, UniProt P0DX74 1-299)
T1 sequence: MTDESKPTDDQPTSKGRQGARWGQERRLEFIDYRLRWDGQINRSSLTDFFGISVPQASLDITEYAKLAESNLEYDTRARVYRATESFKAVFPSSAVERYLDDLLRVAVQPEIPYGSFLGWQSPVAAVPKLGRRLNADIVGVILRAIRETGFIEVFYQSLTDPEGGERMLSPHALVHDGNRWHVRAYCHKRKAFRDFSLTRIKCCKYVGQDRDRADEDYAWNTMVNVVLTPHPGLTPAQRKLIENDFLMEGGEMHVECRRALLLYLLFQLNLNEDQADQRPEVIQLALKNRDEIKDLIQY
Assay: fluorescence polarization; 5 mM MgCl2; FP: 25 mM Tris pH 8.5, 50 mM NaCl, 5% glycerol, 5 mM MgCl2, 1 mM DTT, 0.01% NP-40 substitute, 50 nM DNA, 10 min, RT; EMSA: 50 mM Tris-HCl pH 8.5, 50 mM NaCl, 5
Conditions: protein: recombinant; tags: N-terminal His6-TEV, cleaved; chain copies: 2; label: 5'-6-FAM on one strand; blunt

B1: Probe #4 (dsDNA)
DNA 1: CTAAAAACTATGCGTATAGTAATAATACGC
DNA 2: GCGTATTATTACTATACGCATAGTTTTTAG
Kd: 1000 ± 100 nM
